# Measurements: US6749856B1, “Mucosal cytotoxic T lymphocyte responses” (priority 1997, dated 2004)
# B1: rmIL-12 (protein, UniProt P43431 23-215; P43432 23-335, looked up)
# Interleukin-12 subunit alpha: RVIPVSGPARCLSQSRNLLKTTDDMVKTAREKLKHYSCTAEDIDHEDITRDQTSTLKTCLPLELHKNESCLATRETSSTTRGSCLPPQKTSLMMTLCLGSIYEDLKMYQTEFQAINAALQNHNHQQIILDKGMLVAIDELMQSLNHNGETLRQKPPVGEADPYRVKMKLCILLHAFSTRVVTINRVMGYLSSA
# Interleukin-12 subunit beta: MWELEKDVYVVEVDWTPDAPGETVNLTCDTPEEDDITWTSDQRHGVIGSGKTLTITVKEFLDAGQYTCHKGGETLSHSHLLLHKKENGIWSTEILKNFKNKTFLKCEAPNYSGRFTCSWLVQRNMDLKFNIKSSSSSPDSRAVTCGMASLSAEKVTLDQRDYEKYSVSCQEDVTCPTAEETLPIELALEARQQNKYENYSTSFFIRDIIKPDPPKNLQMKPLKNSQVEVSWEYPDSWSTPHSYFSLKFFVRIQRKKEKMKETEEGCNQKGAFLVEKTSTEVQCKGGNVCVQAQDRYYNSSCSKWACVPCRVRS
# Test system: P18IIIB-I10 peptide-pulsed 51Cr labeled P815 targets
# Assay: CTL 51Cr release assay with PP, LP or SP effector cells of immunized mice
# Assay type: in vivo, BALB/c mice
# Details: day 35
molecule,measurement,setting,value
B1,"change in HIV-specific CTL activity in mucosal or systemic sites, rmIL-12 by IP route",1 μg IP each day of IR immunization with PCLUS3-18IIIB 50 μg,did not lead to significant changes
same,"change in CTL level in mucosal and systemic sites, rmIL-12 + DOTAP intrarectally with peptide",1 μg IR,significant increase in the CTL level
same,induction of mucosal or systemic CTL in IR-immunized IFNγ−/− mice treated mucosally with rmIL-12,rmIL-12 1 μg/mouse + DOTAP IR with peptide,did not lead to the induction of mucosal or systemic CTL
